Experimental findings from patent US20250340597A1 are described below.

This assay concerns the target CH848.d0949.10.17 DT (HIV-1). Nature of the assay: not stated (FIG. 4).

As usually defined, the Kd is the constant that tells how readily two partners part at equilibrium. A high value points to lower affinity. In the case of DH270 UCA Fab, the Kd was found to be 60 nM.
